Reference: patent US20220177549A1 (INVETX, published 2022)

Target: T1, equine FcRn complex (equine, UniProt F6XZ61 19-292; P30441 21-118)
T1 construct: Heterodimer of p51 extracellular domain (Avi-tag, 8x His) and Flag-tagged beta-2-microglobulin from HEK293 cells; also called horse FcRn
Assay: SPR (Biacore 8K+), pH 5.9, 25 C; FcRn captured by anti-His, IgG as analyte; 1:1 kinetic model

Fold increase over wild-type KD: 2.8 fold
Kd: 52.3 nM
B1: Equine G426Y (antibody)
chain: APELLGGPSVFIFPPNPKDTLMITRTPEVTCVVVDVSQENPDVKFNWYMDGVEVRTATTRPKEEQFNSTYRVVSVLRIQHQDWLSGKEFKCKVNNQALPQPIERTITKTKGRSQEPQVYVLAPHPDELSKSKVSVTCLVKDFYPPEINIEWQSNGQPELETKYSTTQAQQDSDGSYFLYSKLSVDRNRWQQGTTFTCYVMHEALHNHYTQKNVSKNPGK
